# In publication PMC6537586:
# Conditions: ubiquitination at K571
substance,measurement,value
ELL2: K571R,degradation_or_half_life,"no change, half-life less than 6 h"
